Laboratory results as given in patent US9623039B2, “Treatment and prevention of pathological conditions using iduna related techniques and compositions” (VALTED, LLC, priority 2010, dated 2017).

Experiments:
[1] = tested on: PARsylated PARP1; experiment: PARG activity on PARsylated PARP1; type: biochemical
Method: FIG. 85—PARG activity was measured by incubation with PARsylated PARP1 as indicated. The level of PARsylated PARP1 (Rb-PARP1) was monitored by immunoblot with anti-PAR antibody. There is a slight difference in the sensitivity of assays used to detect PAR, which accounts for the ability of 1 unit of PARG to eliminate PAR in B, but 1.2 units of PARG is required in A.
As disclosed herein, Iduna contains a consensus PBM is its WWE domain and that mutating the hydrophobic amino acids 155Y and 156R to alanine to create an Iduna YRAA mutant disrupts PAR binding to Iduna. MCF7 cells were transfected with GFP-Iduna, GFP-Iduna C60A and GFP-Iduna YRAA. 48 hours later Iduna was immunoprecipitated with antibodies to GFP followed by immunoblot analysis with antibodies to PAR. Iduna and Iduna C60A bind PAR whereas Iduna YRAA is incapable of binding PAR (FIG. 83). To confirm that Iduna binding to PARP1 is dependent on PARsylation of PARP1, binding of automodified PARP1 with ^32P-NAD was monitored in a GST pull down experiment with Histone H3 as a positive control (FIGS. 84 and 85). […] Iduna and Iduna-C60A bind to a range of PAR polymers of varying length similar to H3, whereas Iduna-YRAA fails to bind to PAR, as determined by phosphorimager detection of radiolabeled PAR polymer bound to Iduna, Iduna-C60A and H3 after separation by Tris-borate-EDTA PAGE (FIG. 87).

[2] = tested on: PAR polymer; experiment: PAR polymer overlay / dot blot (far western); type: binding; conditions: PAR polymer overlay assay
Excerpt: PAR binding is specified by a sequence of approximately 20 amino acids containing N-terminal basic amino acids and a C-terminal region containing alternating hydrophobic and basic amino acids (FIG. 24). Iduna contains a predicted PAR polymer binding sequence within amino acids 144-167 of the WWE domain (FIGS. 1 and 24). The PAR-binding domain was defined by comparing to the consensus sequence for PAR-binding and the known PAR binding domain of Histone 3 (FIG. 24). HEK293 cells were transfected with GFP, GFP-Iduna lacking the WWE domain (GFP-IdunaΔWWE), GFP-Iduna lacking the RF domain (GFP-IdunaARF), and full-length GFP-Iduna, followed by immunoprecipitation with a GFP antibody. […] Only GFP-Iduna-ARF and full-length GFP-Iduna can co-immunoprecipiate PAR binding proteins (FIG. 25). The critical amino acids in the PAR binding domain, 156Y and 157R, were mutated to 156A and 157A in full length Iduna (Iduna-YRAA). […] Similar results are obtained with a biotin-tagged PAR polymer followed by detection with an anti-biotin antibody (FIG. 26). […] Histone H3 is a known PAR binding protein and was used as a positive control for the PAR overlay assay. […] An assay based on electrophorectic mobility shift (EMSA) for PAR binding was developed to monitor PAR polymer binding to Iduna. […]

[3] = tested on: MCF7 cells; experiment: Determination of apurinic/apyrimidinic (AP) sites; type: cell-based, human; conditions: 1 h
Method: Determination of apurinic/apyrimidinic (AP) sites. The amount of AP sites in genomic DNA was monitored by a DNA damage quantification kit (BioVision). Briefly, cells were treated with either DMSO or 500 μM MNNG for 15 min, and then replaced with normal growth media. After 1 h, cells were scraped and harvested at 500×g for 5 min and washed once with PBS. Genomic DNA was isolated using a Biovision Genomic DNA Isolation Kit (BioVision) and then AP sites on the 0.5 μg of genomic DNA was labeled with biotin by the Aldehyde Reactive Probe (ARP) reagent (supplied with the DNA damage quantification kit) for 1 h at 37° C. To precipitate the biotin-tagged DNA, sample was mixed with TE buffer containing 2% glycogen and then sequentially incubated with ice cold 70% ethanol for 30 min at −20° C. […] To determine of the number of AP sites in DNA, samples were dissolved in TE buffer and then transferred into 96 well plate with DNA binding buffer (supplied with the DNA damage quantification kit). After 12 h, samples were washed five times with DNA washing buffer (supplied with the DNA damage quantification kit) and then biotin labeled AP sites were quantified using an avidin-biotin assay. Each sample and standards (supplied with a DNA damage quantification kit) were run in triplicate and the OD was measured at 650 nm using a 96-well plate reader (SpectraMax Plus384 Microplate Reader).

[4] = tested on: MCF7 cells; experiment: Alkaline comet assay after γ-irradiation; type: cell-based, human; conditions: γ-irradiation 2 Gy, 15 min
Method: Comet assay. Single cell gel electrophoresis assay was performed by following the manufacturer's instructions. Briefly, established stable cell lines were irradiated (2 Gy) with a Gammacell irradiator and then further incubated for 15 min at 37° C. Cells were collected at 500×g at 4° C. and rinsed twice with ice cold PBS (Ca++ and Mg++ free). A total of 5×10^5 cells were counted and resuspended into PBS (Ca++ and Mg++ free) and then combined with LMAgarose (low melting agarose) at a ratio 1:10 (v/v). Each sample was spotted into CometSlide™ and lysed with buffer (supplied with CometAssay Kit, Trevigen) for 1 h at 4° C. After draining the excess lysis buffer, slides were immersed with alkaline unwinding solution (200 mM NaOH, pH>13, 1 mM EDTA) for 1 h at RT. To the single cell electrophoresis, each comet slide was placed in electrophoresis slide tray with 1 L of alkaline unwinding solution and applied to 21 Volts for 30 min for electrophoresis. After draining the excess electrophoresis buffer, slides were rinsed twice with dH2O and then fixed with 70% ethanol for 5 min. To facilitate single cell observation, slides were dried at 40° C. and stained with SYBR Green I (supplied with CometAssay Kit) for 5 min at 4° C. […] Fifty cells per slide were monitored and the DNA damage was calculated using comet tail length and head diameter parameters.

[5] = tested on: MCF7 cells; experiment: MNNG cell death assay in stable MCF7 cell lines; type: cell-based, human; conditions: MNNG 500 μM 15 min, 24 hr
Method: Cell death assay. GFP, GFP-Iduna, GFP-Iduna C60A, GFP-Iduna YRAA, shRNA-Iduna and shRNA-Iduna/GFP-Iduna stably transfected cells were treated with 500 μM MNNG for 15 min, and replaced with fresh growth media. After 24 h, the cells were stained with […] Hoechst 33342 (Invitrogen) and […] propidium iodide (PI) (Invitrogen) and counted by automated computer-assisted program (Carl Zeiss). The percentage of cell death was determined as the ratio of live to dead cells compared with the percentage of cell death in control.

[6] = tested on: MCF7 cells; experiment: Cell cycle analysis after γ-irradiation; type: cell-based, human; conditions: γ-irradiation 2 Gy
Method: Cell cycle analysis. Studies were performed to evaluate the cell cycle response of each stable cell lines. Cells were plated onto 150 mm culture dishes and cultured for 24 h at 37° C. with fresh growth medium. Following replacement of growth medium, cells were irradiated at 2 Gy with a Gammacell irradiator. After 12 h, cells were washed once with PBS and incubated with PBS containing 0.2% EDTA for 5 min at 37° C., thereafter scraped with fresh growth medium and collected at 500×g at 4° C. Collected cells were washed once with ice cold PBS and then fixed with 70% ethanol. Cells were washed once with PBS containing 1% FBS and resuspended into propidium iodide (PI) staining buffer (PBS, pH 7.4, 50 μg/ml PI, 1% FBS, 100 μg/ml RNase) for 30 min at 37° C. Cells were monitored for DNA content by a flow cytometry (BD Biosciences) and then data were analyzed with FlowJo using Dean-Jett-Fox model for the quantification of each cell cycle phase.

B1: PARG: PAR glycohydrolase, which degrades PAR (protein, UniProt Q86W56 1-976, looked up)
Poly(ADP-ribose) …: MNAGPGCEPCTKRPRWGAATTSPAASDARSFPSRQRRVLDPKDAHVQFRVPPSSPACVPGRAGQHRGSATSLVFKQKTITSWMDTKGIKTAESESLDSKENNNTRIESMMSSVQKDNFYQHNVEKLENVSQLSLDKSPTEKSTQYLNQHQTAAMCKWQNEGKHTEQLLESEPQTVTLVPEQFSNANIDRSPQNDDHSDTDSEENRDNQQFLTTVKLANAKQTTEDEQAREAKSHQKCSKSCDPGEDCASCQQDEIDVVPESPLSDVGSEDVGTGPKNDNKLTRQESCLGNSPPFEKESEPESPMDVDNSKNSCQDSEADEETSPGFDEQEDGSSSQTANKPSRFQARDADIEFRKRYSTKGGEVRLHFQFEGGESRTGMNDLNAKLPGNISSLNVECRNSKQHGKKDSKITDHFMRLPKAEDRRKEQWETKHQRTERKIPKYVPPHLSPDKKWLGTPIEEMRRMPRCGIRLPLLRPSANHTVTIRVDLLRAGEVPKPFPTHYKDLWDNKHVKMPCSEQNLYPVEDENGERTAGSRWELIQTALLNKFTRPQNLKDAILKYNVAYSKKWDFTALIDFWDKVLEEAEAQHLYQSILPDMVKIALCLPNICTQPIPLLKQKMNHSITMSQEQIASLLANAFFCTFPRRNAKMKSEYSSYPDINFNRLFEGRSSRKPEKLKTLFCYFRRVTEKKPTGLVTFTRQSLEDFPEWERCEKPLTRLHVTYEGTIEENGQGMLQVDFANRFVGGGVTSAGLVQEEIRFLINPELIISRLFTEVLDHNECLIITGTEQYSEYTGYAETYRWSRSHEDGSERDDWQRRCTEIVAIDALHFRRYLDQFVPEKMRRELNKAYCGFLRPGVSSENLSAVATGNWGCGAFGGDARLKALIQILAAAAAERDVVYFTFGDSELMRDIYSMHIFLTERKLTVGDVYKLLLRYYNEECRNCSTPGPDIKLYPFIYHAVESCAETADHSGQRTGT
[1]
  removal of PAR from PARsylated PARP1: dose dependently removes PAR from PARsylated PARP1

B2: GST-Iduna: full length recombinant GST-Iduna fusion protein (protein)
chain: MEMAGCGEIDHSINMLPTNKKANESCSNTAPSLTVPECAICLQTCVHPVSLPCKHVFCYLCVKGASWLGKRCALCRQEIPEDFLDKPTLLSPEELKAASRGNGEYAWYYEGRNGWWQYDERTSRELEDAFSKGKKNTEMLIAGFLYVADLENMVQYRRNEHGRRRKIKRDIIDIPKKGVAGLRLDCDTNTVNLARESSADGADSGSAQTGASVQLAVPSSTRPLTSVDGQLTSPVTPSPDAGISLEDSFAHLQLSGDSIAERSHRGEGEEDHESPSSGRVPDTSVEETESDASSDSEDAPVVVAQHSLTQQRPLVPNGNQTVADQSDRSGTDRSVAGGGTMSVNVRSRRPDGQCTVIEV
modifications: left off: a dimerising Fc or GST
notes: full length recombinant GST-Iduna fusion protein
[2]
  PAR polymer binding: binds to PAR polymer

B3: Iduna C60A: Iduna RING finger point mutant lacking E3 ligase activity (protein, UniProt Q9NTX7 1-359, looked up, variant C60A)
E3 ubiquitin-protein ligase …: MMAGCGEIDHSINMLPTNRKANESCSNTAPSLTVPECAICLQTCVHPVSLPCKHVFCYLAVKGASWLGKRCALCRQEIPEDFLDKPTLLSPEELKAASRGNGEYAWYYEGRNGWWQYDERTSRELEDAFSKGKKNTEMLIAGFLYVADLENMVQYRRNEHGRRRKIKRDIIDIPKKGVAGLRLDCDANTVNLARESSADGADSVSAQSGASVQPLVSSVRPLTSVDGQLTSPATPSPDASTSLEDSFAHLQLSGDNTAERSHRGEGEEDHESPSSGRVPAPDTSIEETESDASSDSEDVSAVVAQHSLTQQRLLVSNANQTVPDRSDRSGTDRSVAGGGTVSVSVRSRRPDGQCTVTEV
modifications: GFP tag
[3]
  increase in AP sites after MNNG: fails to reduce the number of AP sites
[4]
  comet head diameter and tail length: does not prevent the reduction in head diameter and increase in tail length
[5]
  MNNG-induced cell death: not protective
[6]
  cell cycle arrest and cell survival: not protective
